In IntAct's records for PubMed 29039417:

B1: BBSome complex member BBS2 (Homo sapiens), Q9BXC9 (parent)
chain: MLLPVFTLKLRHKISPRMVAIGRYDGTHPCLAAATQTGKVFIHNPHTRNQHVSASRVFQSPLESDVSLLSINQAVSCLTAGVLNPELGYDALLVGTQTNLLAYDVYNNSDLFYREVADGANAIVLGTLGDISSPLAIIGGNCALQGFNHEGSDLFWTVTGDNVNSLALCDFDGDGKKELLVGSEDFDIRVFKEDEIVAEMTETEIVTSLCPMYGSRFGYALSNGTVGVYDKTSRYWRIKSKNHAMSIHAFDLNSDGVNELITGWSNGKVDARSDRTGEVIFKDNFSSAIAGVVEGDYRMDGHIQLICCSVDGEIRGYLPGTAEMRGNLMDTSAEQDLIRELSQKKQNLLLELRNYEENAKAELASPLNEADGHRGIIPANTRLHTTLSVSLGNETQTAHTELRISTSNDTIIRAVLIFAEGIFTGESHVVHPSIHNLSSSICIPIVPPKDVPVDLHLKAFVGYRSSTQFHVFESTRQLPRFSMYALTSLDPASEPISYVNFTIAERAQRVVVWLGQNFLLPEDTHIQNAPFQVCFTSLRNGGHLHIKIKLSGEITINTDDIDLAGDIIQSMASFFAIEDLQVEADFPVYFEELRKVLVKVDEYHSVHQKLSADMADHSNLIRSLLVGAEDARLMRDMKTMKSRYMELYDLNRDLLNGYKIRCNNHTELLGNLKAVNQAIQRAGRLRVGKPKNQVITACRDAIRSNNINTLFKIMRVGTASS
partner: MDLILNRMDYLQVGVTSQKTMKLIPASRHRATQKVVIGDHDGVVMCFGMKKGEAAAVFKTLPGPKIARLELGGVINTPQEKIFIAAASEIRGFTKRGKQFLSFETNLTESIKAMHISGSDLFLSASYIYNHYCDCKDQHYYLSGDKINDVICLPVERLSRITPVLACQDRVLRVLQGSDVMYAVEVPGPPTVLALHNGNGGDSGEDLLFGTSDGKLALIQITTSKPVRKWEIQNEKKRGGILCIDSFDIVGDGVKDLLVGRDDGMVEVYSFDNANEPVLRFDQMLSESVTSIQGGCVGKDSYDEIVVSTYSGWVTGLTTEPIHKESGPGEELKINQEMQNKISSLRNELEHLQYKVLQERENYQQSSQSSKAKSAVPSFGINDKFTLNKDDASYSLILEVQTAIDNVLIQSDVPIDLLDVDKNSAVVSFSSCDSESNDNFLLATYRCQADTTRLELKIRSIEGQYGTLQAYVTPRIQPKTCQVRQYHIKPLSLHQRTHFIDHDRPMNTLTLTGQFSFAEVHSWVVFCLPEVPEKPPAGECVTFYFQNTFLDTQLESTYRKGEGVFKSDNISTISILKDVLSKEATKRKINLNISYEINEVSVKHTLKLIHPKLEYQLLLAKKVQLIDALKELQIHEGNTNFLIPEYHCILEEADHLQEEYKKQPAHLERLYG

Variants of: B1
Conditions: with BBS7, Q8IWZ6-2

Variant	effect of a mutation on the interaction
L455A	with no effect
Q680E	with no effect
Q680A	with no effect
L387K	disrupting interaction strength
H431E	with no effect
S433A	with no effect
N708A	with no effect
N708K	with no effect
I546K	with no effect
L610E	with no effect
P378E	with no effect
R476K	with no effect
I422E	with no effect
L348E	with no effect
H399A	with no effect
D585K	with no effect
T555E	with no effect
I445E	disrupting interaction strength
F574L	disrupting interaction strength
A631E	with no effect
N408K	with no effect
I503E	with no effect
I503A	with no effect
I713E	with no effect
D636G	disrupting interaction strength
D636E	with no effect

Variant	effect of a mutation on the interaction
Y603E	with no effect
V446K	with no effect
R635C	disrupting interaction strength
K595A	with no effect
Q569E	with no effect
N540E	with no effect
M640E	with no effect
M640K	with no effect
H525E	with no effect
K345A	with no effect
A612E	with no effect
A612K	with no effect
V510E	with no effect
Q508K	with no effect
S439A	with no effect
K638A	with no effect
K549A	with no effect
I441K	with no effect
D450K	disrupting interaction strength
F501K	disrupting interaction strength
H373K	with no effect
P479K	with no effect
A370E	with no effect
P366A	with no effect
D371E	with no effect
L489E	with no effect

Variant	effect of a mutation on the interaction
D523K	with no effect
L647A	disrupting interaction strength
L647E	disrupting interaction strength
L593E	with no effect
E583A	with no effect
D560K	with no effect
G326E	with no effect
N368K	with no effect
A674E	with no effect
S605E	disrupting interaction strength
D579E	with no effect
I434K	with no effect
T400E	with no effect
I561C	disrupting interaction strength
I561E	with no effect
T424E	with no effect
L416A	with no effect
P690E	with no effect
P491E	with no effect
R594E	with no effect
L352E	with no effect
L710E	with no effect
V453A	with no effect
E494K	with no effect
T410E	with no effect
H604E	with no effect

Variant	effect of a mutation on the interaction
H604A	with no effect
E522K	with no effect
E522A	with no effect
S332K	with no effect
N676A	with no effect
N358A	with no effect
T331K	with no effect
L597A	with no effect
E340K	with no effect
R509A	with no effect
S405A	with no effect
G565A	with no effect
G565E	with no effect
R464E	with no effect
R464A	with no effect
C662A	with no effect
P587A	with no effect
P587K	with no effect
K673A	with no effect
H435K	with no effect
H435A	with no effect
I660E	with no effect
D562E	with no effect
V499K	disrupting interaction strength
V499E	disrupting interaction strength
N517K	disrupting interaction strength

Variant	effect of a mutation on the interaction
L349A	with no effect
L349E	with no effect
T696E	with no effect
R652A	with no effect
L538E	with no effect
N528E	with no effect
E553K	with no effect
A359E	with no effect
R684A	with no effect
S623A	with no effect
M637S	disrupting interaction strength
L654A	with no effect
D616A	with no effect
F518K	with no effect
L457A	with no effect
Q468K	with no effect
L402K	disrupting interaction strength
L520A	with no effect
L519E	disrupting interaction strength
V461M	disrupting interaction strength
L391K	with no effect
L363K	with no effect
N436K	with no effect
N436A	with no effect
V606E	with no effect
V606K	with no effect

Variant	effect of a mutation on the interaction
V588A	with no effect
S573E	with no effect
D454E	with no effect
D454A	with no effect
S365E	with no effect
I567E	with no effect
V600E	with no effect
R661K	with no effect
V415A	with no effect
L550E	with no effect
P452A	with no effect
P447A	with no effect
K458E	with no effect
E394K	with no effect
H607A	disrupting interaction strength
H607K	with no effect
I443E	with no effect
I443K	disrupting interaction strength
I443A	with no effect
L685K	with no effect
L685A	disrupting interaction strength
Y484S	disrupting interaction strength
V582A	with no effect
V512E	with no effect
L337E	with no effect
I526K	with no effect

Variant	effect of a mutation on the interaction
F460E	with no effect
L580E	with no effect
L341A	with no effect
S720A	with no effect
P444K	with no effect
V687K	with no effect
S474A	with no effect
F481A	with no effect
F469A	with no effect
H456A	with no effect
H545E	with no effect
N706E	with no effect
N706K	with no effect
R681A	with no effect
R339E	with no effect
T558K	with no effect
V451K	with no effect
D613K	with no effect
E351A	with no effect
F423A	with no effect
